*1 amine or outer side, *2 acyl side, *3 side chain or, on linkers, in order; H or OH if unused. Where no end group is shown, it is not given here. Side-chain parts run from the residue outwards. [ ]: non-standard residue; d: D form. The star is where a group is joined. γGlu = O=C(O)[C@H](CCC(=O)[*:2])N[*:1]; Palmitoyl = CCCCCCCCCCCCCCCC(=O)*; Aib = CC(C)(N)C(=O)O
T1: human GIP receptor (human, UniProt P48546 22-466)
T1 sequence (looked up): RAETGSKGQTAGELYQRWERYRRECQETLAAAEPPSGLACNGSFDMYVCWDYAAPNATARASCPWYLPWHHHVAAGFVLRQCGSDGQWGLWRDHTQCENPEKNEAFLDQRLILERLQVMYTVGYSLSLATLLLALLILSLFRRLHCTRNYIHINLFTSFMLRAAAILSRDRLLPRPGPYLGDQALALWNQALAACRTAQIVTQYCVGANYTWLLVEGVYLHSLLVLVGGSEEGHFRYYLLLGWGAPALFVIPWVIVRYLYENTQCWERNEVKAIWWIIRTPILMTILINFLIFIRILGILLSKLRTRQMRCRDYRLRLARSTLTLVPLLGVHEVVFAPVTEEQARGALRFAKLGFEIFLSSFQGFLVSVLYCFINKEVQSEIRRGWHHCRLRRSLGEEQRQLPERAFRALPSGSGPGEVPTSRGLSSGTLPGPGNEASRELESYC

B1: exendin-4 peptide analogue SEQ ID NO: 47 (peptide)
peptide: Y[Aib]QGTFTSDLSIQK([γGlu-Palmitoyl])DKRAVQLFIEWLKNGGPSSGAPPPS-NH2
modifications: N-terminus assumed
SMILES: CCCCCCCCCCCCCCCC(=O)N[C@@H](CCC(=O)NCCCC[C@H](NC(=O)[C@H](CCC(N)=O)NC(=O)[C@@H](NC(=O)[C@H](CO)NC(=O)[C@H](CC(C)C)NC(=O)[C@H](CC(=O)O)NC(=O)[C@H](CO)NC(=O)[C@@H](NC(=O)[C@H](Cc1ccccc1)NC(=O)[C@@H](NC(=O)CNC(=O)[C@H](CCC(N)=O)NC(=O)C(C)(C)NC(=O)[C@@H](N)Cc1ccc(O)cc1)[C@@H](C)O)[C@@H](C)O)[C@@H](C)CC)C(=O)N[C@@H](CC(=O)O)C(=O)N[C@@H](CCCCN)C(=O)N[C@@H](CCCNC(=N)N)C(=O)N[C@@H](C)C(=O)N[C@H](C(=O)N[C@@H](CCC(N)=O)C(=O)N[C@@H](CC(C)C)C(=O)N[C@@H](Cc1ccccc1)C(=O)N[C@H](C(=O)N[C@@H](CCC(=O)O)C(=O)N[C@@H](Cc1c[nH]c2ccccc12)C(=O)N[C@@H](CC(C)C)C(=O)N[C@@H](CCCCN)C(=O)N[C@@H](CC(N)=O)C(=O)NCC(=O)NCC(=O)N1CCC[C@H]1C(=O)N[C@@H](CO)C(=O)N[C@@H](CO)C(=O)NCC(=O)N[C@@H](C)C(=O)N1CCC[C@H]1C(=O)N1CCC[C@H]1C(=O)N1CCC[C@H]1C(=O)N[C@@H](CO)C(N)=O)[C@@H](C)CC)C(C)C)C(=O)O
B2: exendin-4 peptide analogue SEQ ID NO: 49 (peptide)
peptide: Y[Aib]QGTFTSDLSIQK([γGlu-Palmitoyl])DSIAAQDFIEWLKAGGPSSGAPPPS-NH2
modifications: N-terminus assumed
SMILES: CCCCCCCCCCCCCCCC(=O)N[C@@H](CCC(=O)NCCCC[C@H](NC(=O)[C@H](CCC(N)=O)NC(=O)[C@@H](NC(=O)[C@H](CO)NC(=O)[C@H](CC(C)C)NC(=O)[C@H](CC(=O)O)NC(=O)[C@H](CO)NC(=O)[C@@H](NC(=O)[C@H](Cc1ccccc1)NC(=O)[C@@H](NC(=O)CNC(=O)[C@H](CCC(N)=O)NC(=O)C(C)(C)NC(=O)[C@@H](N)Cc1ccc(O)cc1)[C@@H](C)O)[C@@H](C)O)[C@@H](C)CC)C(=O)N[C@@H](CC(=O)O)C(=O)N[C@@H](CO)C(=O)N[C@H](C(=O)N[C@@H](C)C(=O)N[C@@H](C)C(=O)N[C@@H](CCC(N)=O)C(=O)N[C@@H](CC(=O)O)C(=O)N[C@@H](Cc1ccccc1)C(=O)N[C@H](C(=O)N[C@@H](CCC(=O)O)C(=O)N[C@@H](Cc1c[nH]c2ccccc12)C(=O)N[C@@H](CC(C)C)C(=O)N[C@@H](CCCCN)C(=O)N[C@@H](C)C(=O)NCC(=O)NCC(=O)N1CCC[C@H]1C(=O)N[C@@H](CO)C(=O)N[C@@H](CO)C(=O)NCC(=O)N[C@@H](C)C(=O)N1CCC[C@H]1C(=O)N1CCC[C@H]1C(=O)N1CCC[C@H]1C(=O)N[C@@H](CO)C(N)=O)[C@@H](C)CC)[C@@H](C)CC)C(=O)O
B3: exendin-4 peptide analogue SEQ ID NO: 50 (peptide)
peptide: Y[Aib]QGTFTSDLSIQK([γGlu-Palmitoyl])DSRAVQDFIEWLKAGGPSSGAPPPS-NH2
modifications: N-terminus assumed
SMILES: CCCCCCCCCCCCCCCC(=O)N[C@@H](CCC(=O)NCCCC[C@H](NC(=O)[C@H](CCC(N)=O)NC(=O)[C@@H](NC(=O)[C@H](CO)NC(=O)[C@H](CC(C)C)NC(=O)[C@H](CC(=O)O)NC(=O)[C@H](CO)NC(=O)[C@@H](NC(=O)[C@H](Cc1ccccc1)NC(=O)[C@@H](NC(=O)CNC(=O)[C@H](CCC(N)=O)NC(=O)C(C)(C)NC(=O)[C@@H](N)Cc1ccc(O)cc1)[C@@H](C)O)[C@@H](C)O)[C@@H](C)CC)C(=O)N[C@@H](CC(=O)O)C(=O)N[C@@H](CO)C(=O)N[C@@H](CCCNC(=N)N)C(=O)N[C@@H](C)C(=O)N[C@H](C(=O)N[C@@H](CCC(N)=O)C(=O)N[C@@H](CC(=O)O)C(=O)N[C@@H](Cc1ccccc1)C(=O)N[C@H](C(=O)N[C@@H](CCC(=O)O)C(=O)N[C@@H](Cc1c[nH]c2ccccc12)C(=O)N[C@@H](CC(C)C)C(=O)N[C@@H](CCCCN)C(=O)N[C@@H](C)C(=O)NCC(=O)NCC(=O)N1CCC[C@H]1C(=O)N[C@@H](CO)C(=O)N[C@@H](CO)C(=O)NCC(=O)N[C@@H](C)C(=O)N1CCC[C@H]1C(=O)N1CCC[C@H]1C(=O)N1CCC[C@H]1C(=O)N[C@@H](CO)C(N)=O)[C@@H](C)CC)C(C)C)C(=O)O
B4: exendin-4 peptide analogue SEQ ID NO: 51 (peptide)
peptide: Y[Aib]QGTFTSDLSIQK([γGlu-Palmitoyl])DSRAQQDFIEWLKAGGPSSGAPPPS-NH2
modifications: N-terminus assumed
SMILES: CCCCCCCCCCCCCCCC(=O)N[C@@H](CCC(=O)NCCCC[C@H](NC(=O)[C@H](CCC(N)=O)NC(=O)[C@@H](NC(=O)[C@H](CO)NC(=O)[C@H](CC(C)C)NC(=O)[C@H](CC(=O)O)NC(=O)[C@H](CO)NC(=O)[C@@H](NC(=O)[C@H](Cc1ccccc1)NC(=O)[C@@H](NC(=O)CNC(=O)[C@H](CCC(N)=O)NC(=O)C(C)(C)NC(=O)[C@@H](N)Cc1ccc(O)cc1)[C@@H](C)O)[C@@H](C)O)[C@@H](C)CC)C(=O)N[C@@H](CC(=O)O)C(=O)N[C@@H](CO)C(=O)N[C@@H](CCCNC(=N)N)C(=O)N[C@@H](C)C(=O)N[C@@H](CCC(N)=O)C(=O)N[C@@H](CCC(N)=O)C(=O)N[C@@H](CC(=O)O)C(=O)N[C@@H](Cc1ccccc1)C(=O)N[C@H](C(=O)N[C@@H](CCC(=O)O)C(=O)N[C@@H](Cc1c[nH]c2ccccc12)C(=O)N[C@@H](CC(C)C)C(=O)N[C@@H](CCCCN)C(=O)N[C@@H](C)C(=O)NCC(=O)NCC(=O)N1CCC[C@H]1C(=O)N[C@@H](CO)C(=O)N[C@@H](CO)C(=O)NCC(=O)N[C@@H](C)C(=O)N1CCC[C@H]1C(=O)N1CCC[C@H]1C(=O)N1CCC[C@H]1C(=O)N[C@@H](CO)C(N)=O)[C@@H](C)CC)C(=O)O
B5: exendin-4 peptide analogue SEQ ID NO: 48 (peptide)
peptide: Y[Aib]QGTFTSDLSIQK([γGlu-Palmitoyl])DSEAAQDFIEWLKAGGPSSGAPPPS-NH2
modifications: N-terminus assumed
SMILES: CCCCCCCCCCCCCCCC(=O)N[C@@H](CCC(=O)NCCCC[C@H](NC(=O)[C@H](CCC(N)=O)NC(=O)[C@@H](NC(=O)[C@H](CO)NC(=O)[C@H](CC(C)C)NC(=O)[C@H](CC(=O)O)NC(=O)[C@H](CO)NC(=O)[C@@H](NC(=O)[C@H](Cc1ccccc1)NC(=O)[C@@H](NC(=O)CNC(=O)[C@H](CCC(N)=O)NC(=O)C(C)(C)NC(=O)[C@@H](N)Cc1ccc(O)cc1)[C@@H](C)O)[C@@H](C)O)[C@@H](C)CC)C(=O)N[C@@H](CC(=O)O)C(=O)N[C@@H](CO)C(=O)N[C@@H](CCC(=O)O)C(=O)N[C@@H](C)C(=O)N[C@@H](C)C(=O)N[C@@H](CCC(N)=O)C(=O)N[C@@H](CC(=O)O)C(=O)N[C@@H](Cc1ccccc1)C(=O)N[C@H](C(=O)N[C@@H](CCC(=O)O)C(=O)N[C@@H](Cc1c[nH]c2ccccc12)C(=O)N[C@@H](CC(C)C)C(=O)N[C@@H](CCCCN)C(=O)N[C@@H](C)C(=O)NCC(=O)NCC(=O)N1CCC[C@H]1C(=O)N[C@@H](CO)C(=O)N[C@@H](CO)C(=O)NCC(=O)N[C@@H](C)C(=O)N1CCC[C@H]1C(=O)N1CCC[C@H]1C(=O)N1CCC[C@H]1C(=O)N[C@@H](CO)C(N)=O)[C@@H](C)CC)C(=O)O

molecular target: human glucagon receptor (human, UniProt P47871 26-477); experiment: cell-based or functional assay
Sequence (P47871 26-477): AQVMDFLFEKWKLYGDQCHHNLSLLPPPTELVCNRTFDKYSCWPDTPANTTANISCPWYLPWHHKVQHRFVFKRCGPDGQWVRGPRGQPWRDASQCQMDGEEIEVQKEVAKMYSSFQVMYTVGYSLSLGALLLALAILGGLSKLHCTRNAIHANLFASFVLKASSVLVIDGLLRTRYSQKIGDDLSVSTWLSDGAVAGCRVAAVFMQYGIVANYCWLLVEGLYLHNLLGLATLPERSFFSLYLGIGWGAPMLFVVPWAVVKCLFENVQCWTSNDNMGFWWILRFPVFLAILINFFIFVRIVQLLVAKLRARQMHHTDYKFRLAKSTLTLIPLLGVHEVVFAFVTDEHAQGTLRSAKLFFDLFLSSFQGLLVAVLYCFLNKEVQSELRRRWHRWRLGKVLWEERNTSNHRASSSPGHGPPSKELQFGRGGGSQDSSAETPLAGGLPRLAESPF

Binder | EC50 hGLUC R
B1 | 2390 pM
B2 | 195 pM
B3 | 1720 pM
B4 | 571 pM
B5 | 478 pM

molecular target: T1, human GIP receptor; experiment: cell-based or functional assay

Binder | EC50 hGIP R
B1 | 44.2 pM
B2 | 45.6 pM
B3 | 47.9 pM
B4 | 6.3 pM
B5 | 15.8 pM

molecular target: human GLP-1 receptor (human, UniProt P43220 24-463); experiment: cell-based or functional assay

Binder | EC50 hGLP-1 R
B1 | 15.6 pM
B2 | 17.2 pM
B3 | 10 pM
B4 | 4.2 pM
B5 | 10.1 pM

Source: patent US20140213513A1 (Sanofi, priority 2012, published 2014)
